B1: 3B04 chimeric IgG4 mAb (antibody, V domains shown)
VH: QVQLQQPGAELVRPGASVTLSCKASGYTFTDYEMHWVKQTPVHGLEWIGEIDPETGDTAYSQKFKGKATLTADKSSSTAYMEFRSLTSEDSAVYYCSRETDYFFDYWGQGTTLTVSS
VL: DIQMTQTPASLSASVGETVTITCGASENIYGALNWYQRKQGKSPQLLIYGATNLADGMSSRFSGSGSGRQYSLKISSLHPDDFATYYCQNVLTTPWTFGGGTKLEIK
B2: 3A07 chimeric IgG4 mAb (antibody, V domains shown)
VH: QVQLQQSGAELVRPGAPVTLSCKASDYTFTDSEIHWVKQTPVHGLEWIGEIDPETGGTAYNQKFKGKATLTADKSSSTAYMELRSLTSEDSAVYYCSRETDYFFDYWGQGTTLTVSS
VL: ENVLTQSPAIMSASPGEKVTMTCSASSSVSYMYWYQQRPGSSPRLLIYDTSNLASGVPVRFSGSGSGTSYSLTISRMEAEDAATYYCQQWSSYPLTFGSGTKLEIK
B3: 3D12 chimeric IgG4 mAb (antibody, V domains shown)
VH: QVQLQQPGAELVRPGASVTLSCKASDYTFTDSEIHWVKQTPVHGLEWIGEIDPETGGTAYNQKFKGKATLTADKSSSTAYMELRSLTSEDSAVYYCSRETDYFFDYWGQGTTLTVSS
VL: DIQMTQSPASLSASVGETVTITCGASENIYGALNWYQRKQGKSPQLLIYGATNLADGMSSRFSGSGSGRQYSLKISSLHPDDVATYYCQNVLSTPWTFGGGTKLEIK
B4: 3C10 chimeric IgG4 mAb (antibody, V domains shown)
VH: EVQLQQSGAELVRPGASVTLSCKASDYTFTDSEIHWVKQTPVHGLEWIGEIDPETGGTAYNQKFKGKATLTADKSSSTAYMELRSLTSEDSAVYYCSRETDYFFDYWGQGTTLTVSS
VL: DVVMTQTPAIMSASPGEKVTMTCSASSSVSYMYWYQQKPGSSPRLLIYDTSNLASGVPVRFSGSGSGTSYSLTISRMEAEDAATYYCQQWSSYPLTFGAGTKLELK
B5: 2E08 chimeric IgG4 mAb (antibody, V domains shown)
VH: QVQMKESGAELVRPGVSVKISCKGSGYTFTDYAIHWVKQSHAKTLEWIGVISTYYGDASYNQKFKGKATMTVDKSSSTAYMELARLTSDDSAIYYCARSRGEYGNYDAMDYWGQGTSVTVSS
VL: DIVLTQSPASLAVSLGQRATISCKASQSVDYDGDSYMNWYQQKPGQPPKLLIYAASNLESGIPARFSGSGSGTDFTLNIHPVEEEDAATYYCQQSNEDPLTFGAGTKLELK
B6: 2B11 chimeric IgG4 mAb (antibody, V domains shown)
VH: EVQLVESGAELVRPGVSVKISCKGSGYTFTDYAIHWVKQSHAKSLEWIGVISTYYGDASYNQKFKGKATMTVDKSSSTAYMELARLTSEDSAIYYCARSRGEYGNYDAMDYWGQGTSVTVSS
VL: DIVLTQSPASLAVSLGQRATISCRASESVDSYGNSFMHWYQQKPGQPPKLLIYRASNLESGIPARFSGSGSRTDFTLTINPVEADDVATYYCQQSNEDPYTFGGGTKLEIK
B7: 3B04_var13 (antibody, V domains shown)
VH: QVQLVQSGAEVKKPGASVKVSCKASGYTFTDYEMHWVRQAPGQGLEWIGEIDPETGDTAYSQKFKGRATLTADKSTSTAYMEFSSLRSEDTAVYYCSRETDYFFDYWGQGTLVTVSS
VL: DIQMTQSPSSLSASVGDRVTITCRASENIYGALNWYQQKPGKAPKLLIYGATNLAEGVPSRFSGSGSGRDYTLTISSLQPEDFATYYCQNVLTTPWTFGQGTKLEIKR
B8: 3D12_var15 (antibody, V domains shown)
VH: QVQLVQSGAEVKKPGASVKVSCKASDYTFTDSEIHWVRQAPGQGLEWMGEIDPETGGTAYAQKFQGRVTLTADKSTSTAYMELSSLRSEDTAVYYCSRETDYFFDYWGQGTLVTVSS
VL: DIQMTQSPSSLSASVGDRVTITCRASENIYGALNWYQQKPGKAPKLLIYGATNLAEGVPSRFSGSGSGRDYTLTISSLQPEDVATYYCQNVLSTPWTFGQGTKLEIKR
B9: 3B04_var14 (antibody, V domains shown)
VH: QVQLVQSGAEVKKPGASVKVSCKASGYTFTDYEMHWVRQAPGQGLEWIGEIDPETGDTAYSQKFQGRVTLTADKSTSTAYMEFSSLRSEDTAVYYCSRETDYFFDYWGQGTLVTVSS
VL: DIQMTQSPSSLSASVGDRVTITCRASENIYGALNWYQQKPGKAPKLLIYGATNLAEGVPSRFSGSGSGRDYTLTISSLQPEDFATYYCQNVLTTPWTFGQGTKLEIKR
B10: 3D12_var13 (antibody, V domains shown)
VH: QVQLVQSGAEVKKPGASVKVSCKASDYTFTDSEIHWVRQAPGQGLEWIGEIDPETGGTAYNQKFKGRATLTADKSTSTAYMELSSLRSEDTAVYYCSRETDYFFDYWGQGTLVTVSS
VL: DIQMTQSPSSLSASVGDRVTITCRASENIYGALNWYQQKPGKAPKLLIYGATNLAEGVPSRFSGSGSGRDYTLTISSLQPEDVATYYCQNVLSTPWTFGQGTKLEIKR
B11: 3B04_var16 (antibody, V domains shown)
VH: QVQLVQSGAEVKKPGASVKVSCKASGYTFTDYEMHWVRQAPGQGLEWMGEIDPETGDTAYAQKFQGRVTLTADKSTSTAYMELSSLRSEDTAVYYCSRETDYFFDYWGQGTLVTVSS
VL: DIQMTQSPSSLSASVGDRVTITCRASENIYGALNWYQQKPGKAPKLLIYGATNLAEGVPSRFSGSGSGRDYTLTISSLQPEDFATYYCQNVLTTPWTFGQGTKLEIKR
B12: 3D12_var16 (antibody, V domains shown)
VH: QVQLVQSGAEVKKPGASVKVSCKASGYTFTDSEMHWVRQAPGQGLEWMGEIDPETGGTAYAQKFQGRVTLTADKSTSTAYMELSSLRSEDTAVYYCSRETDYFFDYWGQGTLVTVSS
VL: DIQMTQSPSSLSASVGDRVTITCRASENIYGALNWYQQKPGKAPKLLIYGATNLAEGVPSRFSGSGSGRDYTLTISSLQPEDVATYYCQNVLSTPWTFGQGTKLEIKR
B13: 3D12_var14 (antibody, V domains shown)
VH: QVQLVQSGAEVKKPGASVKVSCKASDYTFTDSEIHWVRQAPGQGLEWIGEIDPETGGTAYNQKFQGRVTLTADKSTSTAYMELSSLRSEDTAVYYCSRETDYFFDYWGQGTLVTVSS
VL: DIQMTQSPSSLSASVGDRVTITCRASENIYGALNWYQQKPGKAPKLLIYGATNLAEGVPSRFSGSGSGRDYTLTISSLQPEDVATYYCQNVLSTPWTFGQGTKLEIKR

Legend:
[1] = target: Wild type full length LIGHT on HEK293FF cells (alanine scanning control) (UniProt O43557); experiment: flow cytometry, HEK293FF, mAb at EC50
[2] = target: Human LIGHT stably expressed on EL4 cells (EL4-LIGHT) (human) (UniProt O43557); experiment: flow cytometry, EL4-LIGHT cells
[3] = target: LIGHT without residues 81-84, stably expressed on EL4 cells (EL4-NC-LIGHT); experiment: cell-based or functional assay

Chain of Human LIGHT stably expressed on EL4 cells (EL4-LIGHT) (human) (O43557 whole entry, the tested form may be a part): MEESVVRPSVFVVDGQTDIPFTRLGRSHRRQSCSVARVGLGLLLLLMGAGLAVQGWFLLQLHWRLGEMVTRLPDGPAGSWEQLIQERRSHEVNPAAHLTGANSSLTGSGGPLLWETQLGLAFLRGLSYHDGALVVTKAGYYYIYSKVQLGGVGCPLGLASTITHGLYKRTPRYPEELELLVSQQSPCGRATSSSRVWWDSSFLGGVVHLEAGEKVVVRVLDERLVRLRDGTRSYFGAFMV

Binder | % of WT binding [1] [%] | EC50 [2] [pM] | IC50, inhibition of IL-8 secretion, HT-29 + EL4-NC-LIGHT cells [3] [pM]
B1 | 100 | – | –
B2 | 100 | – | –
B3 | 100 | – | –
B4 | 100 | – | –
B5 | 100 | – | –
B6 | 100 | – | –
B7 | – | 320 | 40
B8 | – | 220 | 380
B9 | – | 300 | 50
B10 | – | 240 | 450
B11 | – | 240 | 100
B12 | – | 260 | 520
B13 | – | 230 | 450
